Source: patent US7999089, “RNA aptamers and the uses thereof” (Industry-Academic Cooperation Foundation, Dankook University)

Key:
TCF-1 C200 (HMG domain) [1] = molecular target: T1, TCF-1 C200 (HMG domain) (Mus musculus, UniProt Q00417 Q00417:188-388); assay: EMSA; settings: tags: GST fusion, pGEX 4T-1; label: 32P 5'-end
TCF-1 C200 (HMG domain) [2] = molecular target: T1, TCF-1 C200 (HMG domain); assay: competition; excess unlabelled RNA did not compete with #10; settings: tags: GST fusion, pGEX 4T-1
TCF-1 C200 (HMG domain) [3] = molecular target: T1, TCF-1 C200 (HMG domain); assay: competition; excess unlabelled RNA did not compete with #10; text partly contradictory; settings: tags: GST fusion, pGEX 4T-1
HuR = HuR (UniProt Q15717 Q15717:1-326); assay: EMSA; specificity control; settings: label: 32P (radiolabelled)
GST = GST (UniProt P08515 P08515:1-218); assay: EMSA; specificity control; settings: chain copies: 2; label: 32P (radiolabelled)
TCF-1 (full length) = TCF-1 (full length) (Mus musculus, UniProt Q00417 Q00417:5-388); assay: EMSA; specificity control; settings: tags: GST fusion, pGEX 4T-1; label: 32P (radiolabelled)
[4] = molecular target: GST-β-catenin, full length (UniProt P35222 P35222:1-781); assay: EMSA; stated as binding affinity for full length β-catenin; settings: tags: GST fusion, E. coli; label: 32P (radiolabelled)
Description: After 8 cycles of SELEX selection, the selected sequences were digested with EcoRI and BamHI, followed by cloning into pUC19 to prepare pUC19-aptamer. To test for RNA binding, the RNA was radiolabeled as described previously (Kim & Jeong, Biochem. Biophys. Res. Commun 320:1181-1186, 2004), incubated with GST-β catenin and assayed by GST pull-down (Kim & Jeong, Biochem. Biophys. Res. Commun 320:1181-1186, 2004) or RNA-EMSA (RNA-Electrophoretic Mobility-Shift Assay) (Kim & Jeong, Biochem. Biophys. Res. Commun 320:1181-1186, 2004).

T1 sequence (Q00417 188-388, one chain of several): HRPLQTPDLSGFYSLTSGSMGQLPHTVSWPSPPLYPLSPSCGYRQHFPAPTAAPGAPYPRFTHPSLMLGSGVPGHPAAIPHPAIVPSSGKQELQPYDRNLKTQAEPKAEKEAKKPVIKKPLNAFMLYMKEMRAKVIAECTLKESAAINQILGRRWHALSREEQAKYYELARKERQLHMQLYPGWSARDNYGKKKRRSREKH
Sequence of HuR (Q15717 whole entry, one chain of several): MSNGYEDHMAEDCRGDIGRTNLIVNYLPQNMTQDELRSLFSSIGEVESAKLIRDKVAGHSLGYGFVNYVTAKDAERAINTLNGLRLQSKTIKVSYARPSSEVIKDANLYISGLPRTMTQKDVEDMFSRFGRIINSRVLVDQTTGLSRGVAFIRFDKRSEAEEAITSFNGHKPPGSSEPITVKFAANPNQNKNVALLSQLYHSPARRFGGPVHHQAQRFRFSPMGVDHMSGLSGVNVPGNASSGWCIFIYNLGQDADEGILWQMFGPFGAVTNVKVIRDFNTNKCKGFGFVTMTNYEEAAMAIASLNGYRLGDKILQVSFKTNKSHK
Sequence of GST (P08515 whole entry, the tested form may be a part, one chain of several): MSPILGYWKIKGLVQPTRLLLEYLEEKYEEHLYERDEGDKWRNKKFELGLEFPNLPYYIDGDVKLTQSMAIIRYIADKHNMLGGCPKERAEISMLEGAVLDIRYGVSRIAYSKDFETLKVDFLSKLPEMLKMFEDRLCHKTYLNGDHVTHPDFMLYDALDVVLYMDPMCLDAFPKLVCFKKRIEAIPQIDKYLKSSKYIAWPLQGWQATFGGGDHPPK
Sequence of GST-β-catenin, full length (P35222 whole entry, the tested form may be a part, one chain of several): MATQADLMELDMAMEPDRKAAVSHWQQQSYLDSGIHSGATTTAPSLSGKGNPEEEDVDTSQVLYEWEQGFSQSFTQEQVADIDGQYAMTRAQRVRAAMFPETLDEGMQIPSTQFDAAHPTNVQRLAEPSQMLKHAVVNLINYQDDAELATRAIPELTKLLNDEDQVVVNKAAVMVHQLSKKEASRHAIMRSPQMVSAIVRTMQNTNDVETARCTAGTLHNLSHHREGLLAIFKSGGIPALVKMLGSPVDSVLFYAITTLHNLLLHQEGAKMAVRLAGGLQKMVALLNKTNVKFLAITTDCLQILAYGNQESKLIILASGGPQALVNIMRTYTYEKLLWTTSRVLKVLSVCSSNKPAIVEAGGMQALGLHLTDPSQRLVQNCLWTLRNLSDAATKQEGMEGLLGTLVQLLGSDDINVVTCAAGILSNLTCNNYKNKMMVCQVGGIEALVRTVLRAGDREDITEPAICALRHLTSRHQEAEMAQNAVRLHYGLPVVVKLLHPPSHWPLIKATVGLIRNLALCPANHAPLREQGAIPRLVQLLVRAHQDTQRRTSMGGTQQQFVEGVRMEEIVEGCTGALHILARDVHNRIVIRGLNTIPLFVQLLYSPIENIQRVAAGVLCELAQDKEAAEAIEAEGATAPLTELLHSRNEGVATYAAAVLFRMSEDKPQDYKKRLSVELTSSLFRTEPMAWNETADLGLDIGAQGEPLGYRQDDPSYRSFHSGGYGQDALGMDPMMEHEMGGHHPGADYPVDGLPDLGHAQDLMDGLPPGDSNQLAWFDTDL
Sequence of TCF-1 (full length) (Q00417 5-388, one chain of several): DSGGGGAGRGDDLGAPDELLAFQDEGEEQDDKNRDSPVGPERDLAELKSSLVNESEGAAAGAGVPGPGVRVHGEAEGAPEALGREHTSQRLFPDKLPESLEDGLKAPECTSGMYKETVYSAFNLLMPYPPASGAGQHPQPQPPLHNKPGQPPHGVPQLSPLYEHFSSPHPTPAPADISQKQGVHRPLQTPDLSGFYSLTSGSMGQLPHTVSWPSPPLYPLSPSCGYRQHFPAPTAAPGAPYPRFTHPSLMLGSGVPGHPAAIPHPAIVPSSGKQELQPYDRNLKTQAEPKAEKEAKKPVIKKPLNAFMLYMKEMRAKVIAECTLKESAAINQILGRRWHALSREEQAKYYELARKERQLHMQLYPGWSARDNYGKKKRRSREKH

B1: TRE (TCF responsive element) (dsDNA)
DNA 1: GGTAAGATCAAAGGG
DNA 2: CCCTTTGATCTTACC
B1: binds (TCF-1 C200 (HMG domain) [1]).

B2: RNA #9 (ssRNA)
RNA: UGCUGACAAUUCUCGUGCCUCUCCAUGGUCUGCGGCUGAGAAGGUUCGCCAAGUUGUGGGCCGGGGUGC
B2: no binding (TCF-1 C200 (HMG domain) [2]).

B3: RNA #20 (ssRNA)
RNA: UUCCCGCGGUGGAAAGCGUUGGGUAGCGGCUCCGAUGGAGAGUGGUGCGCCUUGCCUGCUGGCCUUG
B3: no binding (TCF-1 C200 (HMG domain) [3]).

B4: β-catenin RNA aptamer (ssRNA)
RNA: GGACGCGUGGUACCAGGCCGAUCUAUGGACGCUAUAGGCACACCGGAUACUUUAACGAUUGGCUAAGCUUCCGCGGGGAUC
B4: no binding (HuR); no binding (GST); no binding (TCF-1 (full length)). For the same binder, the Kd [4] was 5 nM.
